In IntAct's records for PubMed 21151871:

B1: Guanylate-binding protein 1 (Homo sapiens), P32455 (parent)
chain: MASEIHMTGPMCLIENTNGRLMANPEALKILSAITQPMVVVAIVGLYRTGKSYLMNKLAGKKKGFSLGSTVQSHTKGIWMWCVPHPKKPGHILVLLDTEGLGDVEKGDNQNDSWIFALAVLLSSTFVYNSIGTINQQAMDQLYYVTELTHRIRSKSSPDENENEVEDSADFVSFFPDFVWTLRDFSLDLEADGQPLTPDEYLTYSLKLKKGTSQKDETFNLPRLCIRKFFPKKKCFVFDRPVHRRKLAQLEKLQDEELDPEFVQQVADFCSYIFSNSKTKTLSGGIQVNGPRLESLVLTYVNAISSGDLPCMENAVLALAQIENSAAVQKAIAHYEQQMGQKVQLPTETLQELLDLHRDSEREAIEVFIRSSFKDVDHLFQKELAAQLEKKRDDFCKQNQEASSDRCSALLQVIFSPLEEEVKAGIYSKPGGYRLFVQKLQDLKKKYYEEPRKGIQAEEILQTYLKSKESMTDAILQTDQTLTEKEKEIEVERVKAESAQASAKMLQEMQRKNEQMMEQKERSYQEHLKQLTEKMENDRVQLLKEQERTLALKLQEQEQLLKEGFQKESRIMKNEIQDLQTKMRRRKACTIS
partner: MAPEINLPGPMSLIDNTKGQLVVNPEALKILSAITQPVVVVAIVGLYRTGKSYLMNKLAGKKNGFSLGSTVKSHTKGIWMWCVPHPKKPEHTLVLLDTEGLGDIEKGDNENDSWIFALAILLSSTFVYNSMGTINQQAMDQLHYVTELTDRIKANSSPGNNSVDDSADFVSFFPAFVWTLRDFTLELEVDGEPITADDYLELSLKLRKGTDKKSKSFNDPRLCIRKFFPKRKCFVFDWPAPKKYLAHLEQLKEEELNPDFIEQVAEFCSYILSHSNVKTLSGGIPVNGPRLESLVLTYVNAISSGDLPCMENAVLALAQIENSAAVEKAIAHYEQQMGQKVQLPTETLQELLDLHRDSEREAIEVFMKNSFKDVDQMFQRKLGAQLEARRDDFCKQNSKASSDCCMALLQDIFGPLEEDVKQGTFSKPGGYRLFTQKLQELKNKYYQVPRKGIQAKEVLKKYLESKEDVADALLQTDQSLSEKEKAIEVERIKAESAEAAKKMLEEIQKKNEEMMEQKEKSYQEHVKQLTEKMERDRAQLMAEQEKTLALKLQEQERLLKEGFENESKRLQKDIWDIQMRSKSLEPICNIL
B2: Guanylate-binding protein 1 (Homo sapiens), P32455 (parent)
chain: B1 chain
partner: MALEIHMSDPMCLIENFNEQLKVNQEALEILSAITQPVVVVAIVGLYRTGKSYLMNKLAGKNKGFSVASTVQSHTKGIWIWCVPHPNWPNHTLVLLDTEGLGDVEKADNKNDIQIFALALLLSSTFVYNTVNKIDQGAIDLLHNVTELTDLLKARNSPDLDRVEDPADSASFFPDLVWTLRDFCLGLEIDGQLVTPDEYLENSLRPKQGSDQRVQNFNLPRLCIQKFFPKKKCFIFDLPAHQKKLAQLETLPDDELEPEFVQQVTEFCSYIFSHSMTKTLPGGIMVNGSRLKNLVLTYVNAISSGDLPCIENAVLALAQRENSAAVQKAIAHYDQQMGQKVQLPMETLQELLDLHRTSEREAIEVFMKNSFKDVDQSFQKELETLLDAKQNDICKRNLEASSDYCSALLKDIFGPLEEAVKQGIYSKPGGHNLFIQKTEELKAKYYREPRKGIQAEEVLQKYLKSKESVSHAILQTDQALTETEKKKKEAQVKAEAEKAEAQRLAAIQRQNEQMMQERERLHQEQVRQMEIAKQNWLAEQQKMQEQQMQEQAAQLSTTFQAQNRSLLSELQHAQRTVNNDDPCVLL

Variants of: B1
Conditions: with gbp2_human GBP2, P32456

effect of a mutation on the interaction	Variant
disrupting interaction strength	K51A

Variants of: B2
Conditions: with gbp5_human GBP5, Q96PP8

effect of a mutation on the interaction	Variant
disrupting interaction strength	K51A
